Measured values taken from patent US20140223606, “COMPOSITIONS AND METHODS COMPRISING SEQUENCES HAVING MEGANUCLEASE ACTIVITY” (PIONEER HI BRED INTERNATIONAL INC, published 2014).

T1: MHP14(14) (artificial)
T1 chain: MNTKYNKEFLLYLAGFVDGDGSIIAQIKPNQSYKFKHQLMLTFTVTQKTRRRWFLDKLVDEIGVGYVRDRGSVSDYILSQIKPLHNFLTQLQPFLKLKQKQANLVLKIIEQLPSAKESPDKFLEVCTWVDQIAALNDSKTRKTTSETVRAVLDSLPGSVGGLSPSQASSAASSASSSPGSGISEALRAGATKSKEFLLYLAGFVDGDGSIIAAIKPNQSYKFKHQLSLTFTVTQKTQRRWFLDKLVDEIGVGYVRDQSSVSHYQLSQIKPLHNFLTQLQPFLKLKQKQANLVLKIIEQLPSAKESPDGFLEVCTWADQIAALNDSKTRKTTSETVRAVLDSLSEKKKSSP

T2: MHP14(08) (artificial)
T2 chain: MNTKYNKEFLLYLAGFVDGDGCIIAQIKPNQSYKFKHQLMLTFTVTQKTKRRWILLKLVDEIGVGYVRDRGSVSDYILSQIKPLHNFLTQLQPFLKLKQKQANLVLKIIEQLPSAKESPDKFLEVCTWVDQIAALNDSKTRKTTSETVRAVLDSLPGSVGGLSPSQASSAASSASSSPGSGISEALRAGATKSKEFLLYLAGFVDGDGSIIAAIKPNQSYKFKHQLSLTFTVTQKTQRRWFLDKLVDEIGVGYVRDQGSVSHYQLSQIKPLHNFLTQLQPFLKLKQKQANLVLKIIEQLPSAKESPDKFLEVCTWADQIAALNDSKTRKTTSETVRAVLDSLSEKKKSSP

T3: ZM6.22v2(J5) (artificial)
T3 chain: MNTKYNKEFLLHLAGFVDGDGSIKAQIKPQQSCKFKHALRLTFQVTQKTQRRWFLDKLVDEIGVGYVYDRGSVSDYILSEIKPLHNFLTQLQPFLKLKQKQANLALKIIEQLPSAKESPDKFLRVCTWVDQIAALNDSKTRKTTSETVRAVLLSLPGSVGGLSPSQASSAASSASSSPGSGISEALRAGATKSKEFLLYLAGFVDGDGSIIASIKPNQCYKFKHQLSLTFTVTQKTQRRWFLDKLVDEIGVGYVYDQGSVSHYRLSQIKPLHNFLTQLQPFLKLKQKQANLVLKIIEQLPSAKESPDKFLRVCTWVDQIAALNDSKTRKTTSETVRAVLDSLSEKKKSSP

T4: ZM6.22v2(J3) (artificial)
T4 chain: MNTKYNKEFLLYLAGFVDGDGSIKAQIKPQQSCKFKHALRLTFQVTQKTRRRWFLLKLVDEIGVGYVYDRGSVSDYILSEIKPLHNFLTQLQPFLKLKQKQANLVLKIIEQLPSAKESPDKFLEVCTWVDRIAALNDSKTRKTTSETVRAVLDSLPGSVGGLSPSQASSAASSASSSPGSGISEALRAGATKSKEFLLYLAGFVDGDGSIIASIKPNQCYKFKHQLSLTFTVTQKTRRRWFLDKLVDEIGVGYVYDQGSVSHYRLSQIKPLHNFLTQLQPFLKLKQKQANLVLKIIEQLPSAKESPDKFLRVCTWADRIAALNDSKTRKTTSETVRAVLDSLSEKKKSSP

T5: ZM6.22v2(J7) (artificial)
T5 chain: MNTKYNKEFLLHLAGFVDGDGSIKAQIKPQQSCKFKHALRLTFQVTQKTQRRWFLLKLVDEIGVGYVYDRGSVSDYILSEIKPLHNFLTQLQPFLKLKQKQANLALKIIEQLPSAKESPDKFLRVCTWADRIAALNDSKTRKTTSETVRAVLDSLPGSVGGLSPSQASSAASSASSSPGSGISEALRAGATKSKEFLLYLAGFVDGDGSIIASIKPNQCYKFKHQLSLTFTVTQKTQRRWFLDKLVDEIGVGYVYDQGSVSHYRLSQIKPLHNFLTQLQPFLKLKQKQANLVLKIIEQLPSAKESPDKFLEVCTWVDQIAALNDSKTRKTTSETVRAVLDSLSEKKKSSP


Key:
Details in all cases: tags: NLS, 6xHis
MHP14(14) = molecular target: T1, MHP14(14); test: cell_activity; yeast 37 C; 28 C: 1
Experimental: (§1) A 3 mL culture of selective media (MP Biomedical) was inoculated with a single colony of the yeast screening strain and grown at 30° C. overnight. On the following day, a 50 ml YPD culture (MP Biomedical) was started with 2 ml of the overnight culture and grown at 30° C. overnight. On the following day, the cells were harvested by centrifugation at 4000 rpm. The cells were resuspended in 100 ml ice cold water and centrifuged again. The cells were then washed in 1.2 M sorbitol, followed by treatment with 2 ml of 10 mM Tris pH 8.0, 1 mM EDTA, 100 mM Lithium acetate, 10 mM DTT, 0.6M sorbitol for 30 minutes at 30° C. with shaking. The cells were recovered by centrifugation, washed in 40 ml 1.2M sorbitol and finally resuspended in 250 microliters of 1.2M sorbitol. 50 microliter aliquots were transferred to test tubes on ice. Up to 5 microliters of DNA (100-500 nanograms) were added. The suspension was transferred to a 0.2 cm electroporation cuvette, on ice. Electroporation was performed with a pulse charge at 1.5 kV, 200 ohms, 25 microF (pulse time of 5 milliseconds). 1 mL YPD media (MP Biomedical) was added and the cells were allowed to recover at 30° C. for 1-2 hr. The cells were centrifuged, resuspended in 100 uL 1M sorbitol and plated on selective media lacking leucine and containing 2% galactose. The resulting yeast colonies were incubated at various temperatures ranging from 22 to 37 degrees Celsius for 7-10 days. I-CreI and meganucleases derived from it have maximal activity at or above 37 degrees Celsius. Screening was performed at a range of temperatures from 22 to 37 degrees in order to observe increases in activity at lower temperatures which are relevant to certain biological systems (eg. plant cells, plant cell cultures, etc). At that time the red/white sectoring phenotype, indicative of meganuclease activity was observed. Colonies with increased white sectoring over the parental meganuclease (indicating colonies expressing a meganuclease with increased meganuclease activity), also referred to as “hits” and sometimes completely white, were isolated for further analysis. […]

MHP14(08) = molecular target: T2, MHP14(08); test: cell_activity; yeast 37 C; 28 C: 1
Experimental: as §1

ZM6.22v2(J5) = molecular target: T3, ZM6.22v2(J5); test: cell_activity; yeast 37 C; 30 C: 0.5
Experimental: (§2) A 3 mL culture of selective media (MP Biomedical) was inoculated with a single colony of the yeast screening strain and grown at 30° C. overnight. On the following day, a 50 ml YPD culture (MP Biomedical) was started with 2 ml of the overnight culture and grown at 30° C. overnight. On the following day, the cells were harvested by centrifugation at 4000 rpm. The cells were resuspended in 100 ml ice cold water and centrifuged again. The cells were then washed in 1.2 M sorbitol, followed by treatment with 2 ml of 10 mM Tris pH 8.0, 1 mM EDTA, 100 mM Lithium acetate, 10 mM DTT, 0.6M sorbitol for 30 minutes at 30° C. with shaking. The cells were recovered by centrifugation, washed in 40 ml 1.2M sorbitol and finally resuspended in 250 microliters of 1.2M sorbitol. 50 microliter aliquots were transferred to test tubes on ice. Up to 5 microliters of DNA (100-500 nanograms) were added. The suspension was transferred to a 0.2 cm electroporation cuvette, on ice. Electroporation was performed with a pulse charge at 1.5 kV, 200 ohms, 25 microF (pulse time of 5 milliseconds). 1 mL YPD media (MP Biomedical) was added and the cells were allowed to recover at 30° C. for 1-2 hr. The cells were centrifuged, resuspended in 100 uL 1M sorbitol and plated on selective media lacking leucine and containing 2% galactose. The resulting yeast colonies were incubated at various temperatures ranging from 22 to 37 degrees Celsius for 7-10 days. I-CreI and meganucleases derived from it have maximal activity at or above 37 degrees Celsius. Screening was performed at a range of temperatures from 22 to 37 degrees in order to observe increases in activity at lower temperatures which are relevant to certain biological systems (eg. plant cells, plant cell cultures, etc). At that time the red/white sectoring phenotype, indicative of meganuclease activity was observed. Colonies with increased white sectoring over the parental meganuclease (indicating colonies expressing a meganuclease with increased meganuclease activity), also referred to as “hits” and sometimes completely white, were isolated for further analysis.
(§3) A total of 13 ZM6.22v2 variants with increased activity were confirmed in the yeast system (as described in Example 6). Increased activity was observed across a range of temperatures: 28 degrees Celsius, 30 degrees Celsius and 37 degrees Celsius, as shown in Table 16.

ZM6.22v2(J3) = molecular target: T4, ZM6.22v2(J3); test: cell_activity; yeast 37 C; 30 C: 0.5
Experimental: as §2, §3

ZM6.22v2(J7) = molecular target: T5, ZM6.22v2(J7); test: cell_activity; yeast 37 C; 30 C: 0.5
Experimental: as §2, §3

| Binder | activity (MHP14(14)) [score 0-4] | activity (MHP14(08)) [score 0-4] | activity (ZM6.22v2(J5)) [score 0-4] | activity (ZM6.22v2(J3)) [score 0-4] | activity (ZM6.22v2(J7)) [score 0-4] |
| --- | --- | --- | --- | --- | --- |
| MHP14 recognition site (dsDNA) DNA 1: CAAACAGATTCACGTCAGATTT DNA 2: AAATCTGACGTGAATCTGTTTG | 4 | 4 | – | – | – |
| ZM6.22v2 recognition site (dsDNA) DNA 1: ATTGCTCTCTCACATACTTTTA DNA 2: TAAAAGTATGTGAGAGAGCAAT | – | – | 4 | 3 | 3 |
